Measured values from patent US20250353920A1 (SUBDOMAIN, published 2025).

T1: CD123 (Homo sapiens (Human), UniProt P26951 19-305, limits assumed)
T1 sequence: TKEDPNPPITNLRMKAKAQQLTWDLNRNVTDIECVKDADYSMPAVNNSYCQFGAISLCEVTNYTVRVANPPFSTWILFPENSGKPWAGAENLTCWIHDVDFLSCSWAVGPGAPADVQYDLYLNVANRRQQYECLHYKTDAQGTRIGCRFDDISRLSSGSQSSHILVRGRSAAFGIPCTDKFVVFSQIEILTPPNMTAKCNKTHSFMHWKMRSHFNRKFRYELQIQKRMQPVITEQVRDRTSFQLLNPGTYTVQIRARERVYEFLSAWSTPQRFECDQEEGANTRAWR


Tests used:
[1] = target: T1, CD123; test: library selection; assay not told
[2] = target: control (IgG Fc); test: phage ELISA, control wells, upper end of the distribution
[3] = target: control (IgG Fc); test: phage ELISA, 89 identical clones, control wells
[4] = target: control (IgG Fc); test: phage ELISA, control wells, lower end of the distribution

Binder | binding result [1] | ELISA absorbance [2] [OD] | ELISA absorbance [3] [OD] | ELISA absorbance [4] [OD]
SEQ ID NO 101 (designed binder, DBDpp, library F3) MGSWTEFDRRLDAIWDRLFALGGSEAELAAFEKEIAAFESELQAYKGKGNPEVEWLREEAADIRDYLQAYRHN | binds | – | – | –
bb10 (designed binder) MGSWAEFKQRLAAIKTRLEALGGSEAELAAFLGEIWAFEMELAAYKGKGNPEVEALGREAAAIRMELQAYRHN | – | 0.125 | 0.067 | 0.056

Continued, values first:

binding result [1] | ELISA absorbance [2] [OD] | ELISA absorbance [3] [OD] | ELISA absorbance [4] [OD] | Binder
binds | – | – | – | SEQ ID NO 114 (designed binder, DBDpp, library F3) MGSWTEFDRRLDAIWDRLFALGGSEAELAAFEKEIAAFESELQAYKGKGNPEVEWLREEAADIRDYLQAYRHN
binds | – | – | – | SEQ ID NO 102 (designed binder, DBDpp, library F3) MGSWTEFDRRLDAIWDRLFALGGSEAELAAFEKEIAAFESELQAYKGKGNPEVEWLREEAADIRDYLQAYRHN
